Experimental data: US20200079848A1 (Five Prime, published 2020)

Key:
[1] = target: T1, hILT4-His-Avi tag (human, UniProt Q8N423 22-459); experiment: SPR Biacore T200, 37 C; antibody captured on protein A/G chip, monomeric hILT4 as analyte
T1 construct: also called monomeric human ILT4; extracellular region of hILT4 linked to a His-Avi tag
Experimental: (§1) The binding kinetics of the parent and germline reversion mutant anti-hILT4 antibodies (in the context of IgG1.3) were measured via Surface Plasmon Resonance (SPR) using a Biacore® T200 instrument. The assay temperature was 37° C. and the running buffer was PBS pH 7.4 supplemented with 0.05% Tween-20. Allanti-hILT4 antibodies were captured on a CM4 chip with pre-immobilized protein A/G (Pierce Thermo Scientific catalog number 21186). […] Monomeric human ILT4 was injected as analyte. […] The hILT4 used in this experiment, comprising the extracellular region of hILT4 linked to a His-Avi tag, consists of the following amino acid sequence: […]

[2] = target: T1, hILT4-His-Avi tag; experiment: SPR Biacore T200, 37 C; antibody captured on protein A/G chip, monomeric hILT4 as analyte; kinetic fit
Experimental: as §1

[3] = target: T1, hILT4-His-Avi tag; experiment: SPR Biacore T200, 37 C; antibody captured on protein A/G chip, monomeric hILT4 as analyte; steady state fit
Experimental: as §1

[4] = target: T1, hILT4-His-Avi tag; experiment: SPR Biacore T200, 37 C; antibody captured by anti-human Fc on CM4 chip, hILT4-His-Avi as analyte; 1:1 Langmuir fit
Experimental: The running buffer was 10 mM HEPES pH 7.4 supplemented with 0.05% Tween-20 and 1 g/L BSA. All anti-ILT4 antibodies were captured on a CM4 chip with pre-immobilized anti-human Fc capture antibody from Southern Biotech (catalog number 2081-01). […] All data were double-referenced and fitted to a 1:1 Langmuir model with mass transport using Biacore T200 Evaluation Software version 3.1.

[5] = target: T2, human ILT4 (hILT4) expressed on cells (human, UniProt Q8N423 22-597); experiment: antibody titration flow cytometry binding assay on transfected cells, nonlinear regression
T2 construct: hILT4 on transfected CHO or 293T cells, or native on human monocytes and macrophages; also called LILRB2

[6] = target: T3, human LILRA3 (human, UniProt Q8N6C8 24-439); experiment: as above
T3 construct: whole, on cells; also called hLILRA3; LIRA3

[7] = target: T4, human LILRA2 (human, UniProt Q8N149 24-483); experiment: flow cytometry, 293T transfectants, antibody 20 µg/ml; stacked histograms, control: parental cells
T4 construct: whole, on cells; also called hLILRA2
Experimental: (§2) Individual ILT family members were overexpressed in 293T cells. Each transfectant was stained with 20 μg/ml of anti-ILT4 antibodies followed by 1 μg/ml of anti-human IgG secondary mAb. Binding of the antibodies to each transfectant was measured by flow cytometry.

[8] = target: T5, human LILRA4 (human, UniProt P59901 24-499); experiment: as above
T5 construct: whole, on cells; also called hLILRA4
Experimental: as §2

[9] = target: T6, human LILRA5 (human, UniProt A6NI73 42-299); experiment: as above
T6 construct: whole, on cells; also called hLILRA5
Experimental: as §2

[10] = target: T7, human LILRA6 (human, UniProt Q6PI73 24-481); experiment: as above
T7 construct: whole, on cells; also called hLILRA6
Experimental: as §2

[11] = target: T8, human ILT2 (human, UniProt Q8NHL6 24-650); experiment: as above
T8 construct: whole, on cells; also called hILT2
Experimental: as §2

[12] = target: T9, human ILT3 (human, UniProt Q8NHJ6 22-448); experiment: as above
T9 construct: whole, on cells; also called hILT3
Experimental: as §2

[13] = target: T10, human ILT5 (human, UniProt O75022 24-631); experiment: as above
T10 construct: whole, on cells; also called hILT5; LILRB3
Experimental: as §2

[14] = target: T11, human LIR8 (human, UniProt O75023 24-590); experiment: as above
T11 construct: whole, on cells; also called hLIR8
Experimental: as §2

[15] = target: T2, human ILT4 (hILT4) expressed on cells; experiment: flow cytometry on hILT4-transfected CHO cells, PE anti-human IgG secondary, GMFI (PE); EC50 from the table below the graph; the table has no unit, the concentration axis is in ug/mL
[16] = target: T2, human ILT4 (hILT4) expressed on cells; experiment: flow cytometry on human monocytes of a healthy donor, directly labelled antibody, GMFI; EC50 from the table below the graph; the table has no unit, the concentration axis is in ug/mL
Description: In FIG. 18B, monocytes selected from a normal healthy donor's peripheral blood were stained with individual anti-ILT4 antibodies conjugated to […].

[17] = target: T2, human ILT4 (hILT4) expressed on cells; experiment: flow cytometry on hILT4-transfected CHO cells, MFI (PE); EC50 from the table beside the graph; the table has no unit, the concentration axis is in ug/mL

T2 sequence (Q8N423 other isoform, or with tags, fused parts or gaps): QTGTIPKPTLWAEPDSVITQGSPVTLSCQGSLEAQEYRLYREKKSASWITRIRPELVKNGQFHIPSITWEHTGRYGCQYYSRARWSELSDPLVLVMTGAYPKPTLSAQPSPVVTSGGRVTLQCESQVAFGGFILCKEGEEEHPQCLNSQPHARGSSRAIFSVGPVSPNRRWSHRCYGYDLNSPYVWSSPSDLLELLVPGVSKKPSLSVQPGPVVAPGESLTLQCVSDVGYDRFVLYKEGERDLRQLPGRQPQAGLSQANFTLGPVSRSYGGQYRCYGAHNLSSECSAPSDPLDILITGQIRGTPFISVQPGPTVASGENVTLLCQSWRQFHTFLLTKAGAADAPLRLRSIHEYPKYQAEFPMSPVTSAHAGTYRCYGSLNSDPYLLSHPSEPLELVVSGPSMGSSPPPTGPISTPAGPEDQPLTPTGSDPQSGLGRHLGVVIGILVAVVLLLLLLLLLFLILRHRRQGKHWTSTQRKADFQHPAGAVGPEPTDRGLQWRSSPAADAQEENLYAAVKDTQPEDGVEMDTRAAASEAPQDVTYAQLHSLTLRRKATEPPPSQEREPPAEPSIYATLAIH
T1 sequence (Q8N423 other isoform, or with tags, fused parts or gaps): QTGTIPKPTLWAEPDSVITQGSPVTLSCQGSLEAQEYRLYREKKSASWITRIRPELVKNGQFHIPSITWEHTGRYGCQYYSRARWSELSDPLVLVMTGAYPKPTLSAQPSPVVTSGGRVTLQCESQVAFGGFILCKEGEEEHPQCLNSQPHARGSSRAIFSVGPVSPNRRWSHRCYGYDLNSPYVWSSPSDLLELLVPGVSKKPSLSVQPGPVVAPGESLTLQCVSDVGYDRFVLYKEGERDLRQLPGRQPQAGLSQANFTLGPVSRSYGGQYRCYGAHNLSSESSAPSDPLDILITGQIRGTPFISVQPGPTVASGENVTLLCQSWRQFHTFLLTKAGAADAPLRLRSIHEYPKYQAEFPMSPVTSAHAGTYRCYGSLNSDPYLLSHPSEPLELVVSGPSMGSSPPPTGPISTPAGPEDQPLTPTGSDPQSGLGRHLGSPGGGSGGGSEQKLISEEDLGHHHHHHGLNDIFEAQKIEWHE
T3 sequence (Q8N6C8 24-439): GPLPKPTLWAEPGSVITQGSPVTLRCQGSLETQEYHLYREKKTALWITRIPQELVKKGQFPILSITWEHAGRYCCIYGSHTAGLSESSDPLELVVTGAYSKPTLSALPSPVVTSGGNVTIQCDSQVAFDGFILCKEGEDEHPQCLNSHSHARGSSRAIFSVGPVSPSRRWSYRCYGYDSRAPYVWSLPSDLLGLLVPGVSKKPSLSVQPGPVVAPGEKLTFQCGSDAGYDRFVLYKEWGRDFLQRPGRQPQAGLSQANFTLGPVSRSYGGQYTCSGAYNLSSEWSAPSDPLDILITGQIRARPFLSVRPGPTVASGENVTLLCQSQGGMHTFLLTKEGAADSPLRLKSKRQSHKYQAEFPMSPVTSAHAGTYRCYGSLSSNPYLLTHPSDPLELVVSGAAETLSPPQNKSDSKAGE
T11 sequence (O75023 24-590): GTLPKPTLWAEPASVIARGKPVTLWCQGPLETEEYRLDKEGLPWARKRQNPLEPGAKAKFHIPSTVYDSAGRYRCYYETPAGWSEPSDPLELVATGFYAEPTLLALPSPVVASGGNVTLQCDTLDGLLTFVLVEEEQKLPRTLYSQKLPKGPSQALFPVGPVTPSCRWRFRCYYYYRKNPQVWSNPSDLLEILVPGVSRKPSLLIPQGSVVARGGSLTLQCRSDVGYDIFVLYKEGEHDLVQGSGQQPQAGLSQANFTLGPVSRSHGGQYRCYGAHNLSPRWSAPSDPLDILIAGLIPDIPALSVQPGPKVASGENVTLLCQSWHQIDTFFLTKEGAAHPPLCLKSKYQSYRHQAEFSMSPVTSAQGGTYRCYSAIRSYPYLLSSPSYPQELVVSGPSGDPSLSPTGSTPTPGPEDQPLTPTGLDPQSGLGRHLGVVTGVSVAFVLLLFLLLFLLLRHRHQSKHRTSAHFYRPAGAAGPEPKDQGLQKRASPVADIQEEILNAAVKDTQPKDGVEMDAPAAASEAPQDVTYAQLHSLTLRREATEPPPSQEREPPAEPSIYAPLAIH
T4 sequence (Q8N149 24-483): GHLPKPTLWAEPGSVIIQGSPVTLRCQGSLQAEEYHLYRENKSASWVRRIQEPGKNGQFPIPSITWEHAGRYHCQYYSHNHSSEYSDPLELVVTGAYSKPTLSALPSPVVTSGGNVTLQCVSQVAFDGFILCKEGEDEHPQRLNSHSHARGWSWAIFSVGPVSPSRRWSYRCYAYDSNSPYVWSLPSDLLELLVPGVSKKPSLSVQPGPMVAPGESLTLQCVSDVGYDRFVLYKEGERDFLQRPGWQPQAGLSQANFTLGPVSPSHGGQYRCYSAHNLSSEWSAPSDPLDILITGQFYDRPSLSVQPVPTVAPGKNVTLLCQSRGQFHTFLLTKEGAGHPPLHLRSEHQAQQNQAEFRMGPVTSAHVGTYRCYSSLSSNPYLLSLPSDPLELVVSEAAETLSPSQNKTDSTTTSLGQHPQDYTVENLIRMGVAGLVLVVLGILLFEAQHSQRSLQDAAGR
T7 sequence (Q6PI73 24-481): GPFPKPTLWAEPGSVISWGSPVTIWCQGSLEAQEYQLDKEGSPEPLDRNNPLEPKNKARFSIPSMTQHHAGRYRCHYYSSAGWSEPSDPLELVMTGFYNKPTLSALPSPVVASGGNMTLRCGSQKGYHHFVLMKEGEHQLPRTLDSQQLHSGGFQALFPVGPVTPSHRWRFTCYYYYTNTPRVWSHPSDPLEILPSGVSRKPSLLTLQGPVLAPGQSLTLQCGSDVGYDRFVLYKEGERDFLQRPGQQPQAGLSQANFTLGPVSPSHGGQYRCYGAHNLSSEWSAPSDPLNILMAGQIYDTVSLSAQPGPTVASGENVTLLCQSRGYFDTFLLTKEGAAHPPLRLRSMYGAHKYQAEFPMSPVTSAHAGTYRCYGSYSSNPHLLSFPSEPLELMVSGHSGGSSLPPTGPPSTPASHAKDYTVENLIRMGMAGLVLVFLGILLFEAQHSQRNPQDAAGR
T5 sequence (P59901 24-499): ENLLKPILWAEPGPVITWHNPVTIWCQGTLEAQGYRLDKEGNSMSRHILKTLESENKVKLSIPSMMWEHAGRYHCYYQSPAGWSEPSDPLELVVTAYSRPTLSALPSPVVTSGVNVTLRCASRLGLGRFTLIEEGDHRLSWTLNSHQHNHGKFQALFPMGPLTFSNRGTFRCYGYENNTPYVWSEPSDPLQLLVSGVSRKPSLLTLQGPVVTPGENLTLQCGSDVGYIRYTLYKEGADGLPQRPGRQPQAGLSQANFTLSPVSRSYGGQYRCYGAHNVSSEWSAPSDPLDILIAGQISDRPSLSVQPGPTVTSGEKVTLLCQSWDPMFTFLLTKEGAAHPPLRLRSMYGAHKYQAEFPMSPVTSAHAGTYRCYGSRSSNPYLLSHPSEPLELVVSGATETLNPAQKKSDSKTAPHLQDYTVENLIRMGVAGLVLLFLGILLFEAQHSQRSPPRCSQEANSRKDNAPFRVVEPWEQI
T6 sequence (A6NI73 42-299): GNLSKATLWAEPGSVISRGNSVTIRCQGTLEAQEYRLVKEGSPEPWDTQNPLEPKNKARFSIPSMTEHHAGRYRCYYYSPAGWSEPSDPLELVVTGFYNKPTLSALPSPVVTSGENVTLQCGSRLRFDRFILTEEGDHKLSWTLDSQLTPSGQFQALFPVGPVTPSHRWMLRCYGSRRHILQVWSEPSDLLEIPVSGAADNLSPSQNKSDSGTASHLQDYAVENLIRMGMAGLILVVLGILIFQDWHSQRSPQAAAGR
T8 sequence (Q8NHL6 24-650): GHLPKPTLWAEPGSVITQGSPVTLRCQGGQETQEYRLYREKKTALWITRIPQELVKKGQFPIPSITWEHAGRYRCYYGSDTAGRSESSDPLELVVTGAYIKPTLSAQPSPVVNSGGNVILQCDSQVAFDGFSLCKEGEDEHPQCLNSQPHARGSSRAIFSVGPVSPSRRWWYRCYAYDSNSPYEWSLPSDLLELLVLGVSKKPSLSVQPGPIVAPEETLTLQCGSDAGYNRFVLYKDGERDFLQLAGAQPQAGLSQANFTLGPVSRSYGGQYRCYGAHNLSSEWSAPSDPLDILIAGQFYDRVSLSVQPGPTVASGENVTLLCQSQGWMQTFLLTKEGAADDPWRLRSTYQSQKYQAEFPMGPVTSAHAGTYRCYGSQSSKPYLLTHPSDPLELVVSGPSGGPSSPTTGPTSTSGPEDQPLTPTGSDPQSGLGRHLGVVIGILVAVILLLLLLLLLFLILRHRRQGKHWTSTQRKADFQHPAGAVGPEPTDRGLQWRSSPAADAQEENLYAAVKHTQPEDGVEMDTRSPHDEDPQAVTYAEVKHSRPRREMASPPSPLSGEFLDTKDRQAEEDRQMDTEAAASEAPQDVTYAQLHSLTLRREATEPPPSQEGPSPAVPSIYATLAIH

B1: 10F10.1.IgG1.3 (antibody, V domains shown)
VH: QVQLVESGGGVVQPGRSLRLSCAASGFTFSSYAMHWVRQAPGKGLEWVAIISYDEYNKYYADSVKGRFTISRDNSKNTLYLQMNSLRAEDTAVYYCAREWVGIRYWGQGTLVTVSS
VL: AIQLTQSPSSLSASVGDRVTITCRASQGISSALAWYQQKPGKAPKLLIYDASSLESGVPSRFTGSGSGTDFTLTISSLQPEDFATYYCQQFNSYPITFGQGTRLEIKR
notes: Germline reversion mutant of 10F10 (light chain F36Y); heavy chain of 10F10; IgG1.3; also called 10F10.VK-F36Y.IgG1.3
- fold loss in overall affinity relative to parent 10F10 [1]: ~3 fold
- Kd [2]: 46 nM
- app. act. [2]: 94%
- koff [2]: ~0.07 s⁻¹
- kon [2]: 1.5e+06 M⁻¹ s⁻¹
- Kd [3]: 56 nM
- app. act. [3]: 88%

B2: 10F10.4 (antibody, human IgG1, kappa, V domains shown)
VH: QVQLVESGGGVVQPGRSLRLSCAASGFTFSSYAMHWVRQAPGKGLEWVAIISYDEYNKYYADSVKGRFTISRDNSKNTLYLQMNSLRAEDTAVYYCAREWVGIRYWGQGTLVTVSS
VL: AIQLTQSPSSLSASVGDRVTITCRASQGISSALAWFQQKPGKAPKLLIYDASSLESGVPSRFSGSGSGTDFTLTISSLQPEDFATYYCQQFNSYPITFGQGTRLEIKR
notes: 10F10 with only the light chain reversion T63S
- Kd [4]: 22 nM
- app. act. [4]: 117%
- koff [4]: 0.027 s⁻¹
- kon [4]: 1.2e+06 M⁻¹ s⁻¹

B3: 21A5.a.IgG1.3 (antibody, V domains shown)
VH: QVQLVQSGAEVKKPGASVKVSCKASGYTFTDYYLHWVRQAPGQGLEWMGIFHPSGDITSSAQNFQGRVTMTRDTSTSTVYMELSSLRSEDTAVYYCARGGVLRYLDWSHAFDIWGQGTMVTVSS
VL: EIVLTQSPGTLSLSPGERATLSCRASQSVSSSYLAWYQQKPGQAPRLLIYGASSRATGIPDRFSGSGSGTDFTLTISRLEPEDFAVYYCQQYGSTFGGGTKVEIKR
notes: Germline reversion mutant of 21A5 (VH I70T, VK A3V; 21A5.1 light chain); IgG1.3; also called ILT4.9.IgG1.3; ILT4.9
- EC50 [5]: 0.085 µg/mL
- EC50 [6]: 52.9 µg/mL
- Kd [2]: 0.17 nM
- app. act. [2]: 98%
- koff [2]: 0.00019 s⁻¹
- kon [2]: 1.1e+06 M⁻¹ s⁻¹
- Kd [4]: 0.036 nM
- app. act. [4]: 100%
- koff [4]: 1.7e-05 s⁻¹
- kon [4]: 490000 M⁻¹ s⁻¹
- binding result [7]: no binding (tested: 20 µg/ml)
- binding result [8]: no binding (tested: 20 µg/ml)
- binding result [9]: no binding (tested: 20 µg/ml)
- binding result [10]: no binding (tested: 20 µg/ml)
- binding result [11]: no binding (tested: 20 µg/ml)
- binding result [12]: no binding (tested: 20 µg/ml)
- binding result [13]: no binding (tested: 20 µg/ml)
- binding result [14]: no binding (tested: 20 µg/ml)
- EC50 [15]: 0.0627 µg/mL
- EC50 [16]: 0.395 µg/mL

B4: 21D9.b.hIgG1.3 (antibody)
heavy: EVQLLESGGGLVQPGGSLRLSCATSGFTFSNYAMNWVRQAPGKGLEWISVISVSGGSTYYADSVKGRFTISRDNSKNTLYLQMNSLRAEDTAVYYCAKDYYYDSGSYYDSFFDYWGQGTLVTVSSASTKGPSVFPLAPSSKSTSGGTAALGCLVKDYFPEPVTVSWNSGALTSGVHTFPAVLQSSGLYSLSSVVTVPSSSLGTQTYICNVNHKPSNTKVDKRVEPKSCDKTHTCPPCPAPEAEGAPSVFLFPPKPKDTLMISRTPEVTCVVVDVSHEDPEVKFNWYVDGVEVHNAKTKPREEQYNSTYRVVSVLTVLHQDWLNGKEYKCKVSNKALPAPIEKTISKAKGQPREPQVYTLPPSREEMTKNQVSLTCLVKGFYPSDIAVEWESNGQPENNYKTTPPVLDSDGSFFLYSKLTVDKSRWQQGNVFSCSVMHEALHNHYTQKSLSLSPG
light: not shown
notes: Germline reversion mutant of 21D9 (VH G2V, D10G); light chain of 21D9; IgG1.3
- Kd [2]: 0.34 nM
- app. act. [2]: 90%
- koff [2]: 0.0011 s⁻¹
- kon [2]: 3.1e+06 M⁻¹ s⁻¹

B5: 21D9.c.hIgG1.3 (antibody, V domains shown)
VH: EVQLLESGGDLVQPGGSLRLSCAASGFTFSNYAMNWVRQAPGKGLEWISVISVSGGSTYYADSVKGRFTISRDNSKNTLYLQMNSLRAEDTAVYYCAKDYYYDSGSYYDSFFDYWGQGTLVTVSS
VL: not shown
notes: Germline reversion mutant of 21D9; light chain of 21D9; IgG1.3; also called 21D9.VH-G2V/T24A.IgG1.3
- Kd [2]: 0.42 nM
- app. act. [2]: 97%
- koff [2]: 0.0012 s⁻¹
- kon [2]: 3e+06 M⁻¹ s⁻¹

B6: 21D9.d.hIgG1.3 (antibody, V domains shown)
VH: EVQLLESGGDLVQPGGSLRLSCATSGFTFSNYAMNWVRQAPGKGLEWVSVISVSGGSTYYADSVKGRFTISRDNSKNTLYLQMNSLRAEDTAVYYCAKDYYYDSGSYYDSFFDYWGQGTLVTVSS
VL: not shown
notes: Germline reversion mutant of 21D9; light chain of 21D9; IgG1.3; also called 21D9.VH-G2V/I48V
- Kd [2]: 0.35 nM
- app. act. [2]: 84%
- koff [2]: 0.0011 s⁻¹
- kon [2]: 3.1e+06 M⁻¹ s⁻¹

B7: 2E5.A11 (antibody, V domains shown)
VH: QVQLVESGGGVVQPGRSLRLSCTASGFTFSNYGMHWVRQAPGKGLEWVAVIWYDGSNEYYAESVKGRLTISRDNSKNTLYLQVNSLRAEDTAVYYCARDPFYGSGNYFDYWGQGTLVTVSS
VL: not shown
notes: Hybridoma antibody (human IgG / human kappa), tested as hybridoma supernatant
- EC50 [17]: 0.0986 µg/mL

B8: 9C8.A6 (antibody, V domains shown)
VH: QVQLVQSGAEVKKPGASVKVSCKASGYTFTSSDINWVRQATGQGLEWMGWMNPNSGHTGYAQKFQDRVTLTRDTSISTAYMELSSLRSEDSAVYYCARGGNSIDWGFSYYGLDVWGQGTTVTVSS
VL: AIQLTQSPSSLSASVGDRVTITCRASQGISSALAWYQQKPGKAPKLLIYDASSLESGVPSRFSGSGSGTDFTLTISSLQPEDFATYYCQQFNSYPFTFGPGTKVDIK
notes: Hybridoma antibody (human IgG / human kappa from transgenic mice), tested as hybridoma supernatant
- EC50 [17]: 0.189 µg/mL

B9: 9G4 (antibody, V domains shown)
VH: QVQLQESGPGLVKPSETLSLTCTVSGGSISSYYWNWIRQPPGKGLEWLGYIYYSGSTKYNPSLKSRVTISVDTSKNQFSLKLSSVTAADTAVYYCASSGWYYFDYWGQGTLVTVSS
VL: EIVLTQSPATLSLSPGERATLSCRASQSVSSYLAWYQQKPGQAPRLLIYDASNRATGIPARFSGSGSGTDFTLTISSLEPEDFAGYYCQQRSYWPWTFGQGTKVEIK
notes: Hybridoma antibody (human IgG / human kappa), tested as hybridoma supernatant; also called 9G4 (hybridoma)
- EC50 [17]: 2.84 µg/mL

B10: 21D9.H11 (antibody, V domains shown)
VH: EGQLLESGGDLVQPGGSLRLSCATSGFTFSNYAMNWVRQAPGKGLEWISVISVSGGSTYYADSVKGRFTISRDNSKNTLYLQMNSLRAEDTAVYYCAKDYYYDSGSYYDSFFDYWGQGTLVTVSS
VL: not shown
notes: Hybridoma antibody (human IgG / human kappa), tested as hybridoma supernatant; also called 21D9 (hybridoma)
- EC50 [17]: 0.0174 µg/mL

B11: 24E5.A7 (antibody, V domains shown)
VH: EVQLLESGGGLVQPGGSLRLSCAASGFTFSSYVMSWVRQAPGKGLEWVSGISGSGGSTYYADSVKGRFTISRDNSKNTLYLQMNSLRAEDTAVYYCAKDQDIIAAYYFVYWGQGTLVTVSS
VL: DIQMTQSPSSLSASVGDRVTITCRASQGISSWLAWYQQKPEKAPKSLIYAASSLQSGVPSRFSGSGSGTDFTLTISSLQPEDFATYYCQQYNSYPLTFGGGTKVEIK
notes: as for B7
- EC50 [17]: 0.268 µg/mL
